Experimental findings from patent publication US20150368300A1, “COMPOSITIONS AND METHODS RELATING TO […] DOT1L RECRUITMENT BY MLL-FUSION PROTEINS” (published 2015) are described below.

The target in assay [1] is T1, MBP-ENL (489-559) (Homo sapiens (Human)) (UniProt Q03111).
T1 sequence: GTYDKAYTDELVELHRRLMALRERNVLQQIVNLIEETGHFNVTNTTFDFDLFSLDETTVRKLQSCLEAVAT
The assay can be described thus: ITC; peptide (500 µM) into MBP-ENL (110 µM).

In assay [2] the target is T2, ENL (489-559), recombinant C-terminal domain of ENL (Homo sapiens (Human), UniProt Q03111).
T2 sequence: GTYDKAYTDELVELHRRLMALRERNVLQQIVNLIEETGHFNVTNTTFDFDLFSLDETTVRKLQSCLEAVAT
The assay can be described thus: competitive SPR.

Assay [3] deals with T3, AF9 (497-568), recombinant C-terminal domain of human AF9 (human, UniProt P42568). The assay can be described thus: competitive SPR.
The target in assay [4] is T2, ENL (489-559), recombinant C-terminal …. The assay can be described thus: competitive SPR; peptide pre-incubated with ENL (500 nM), over immobilised Mocr-DOT1L (826-1095). As to the method: Solution competitive SPR based assay was performed to determine the IC₅₀ values of DOT1L peptides. […] IC₅₀ values were determined by non-linear least squares analysis using Graph Pad Prism 5.0 software.

The target in assay [5] is T1, MBP-ENL (489-559) (Homo sapiens (Human)). As to the kind of experiment: ITC. (ITC needs no label: the signal is the heat of the interaction.)
Assay [6] concerns the target T3, AF9 (497-568), recombinant C-terminal …. The assay can be described thus: competitive SPR; peptide pre-incubated with AF9 (500 nM), over immobilised Mocr-DOT1L (826-1095).
In assay [7] the target is Mocr-DOT1L (826-1095) (human) (UniProt Q8TEK3). The assay can be described thus: SPR; Mocr-DOT1L (826-1095) immobilised. On the technique in general: In SPR one partner is held on a chip, and binding of the other changes the refractive index at the surface.
A further assay addresses T4, DOT1L (826-937) (human) (UniProt Q8TEK3).
T4 sequence: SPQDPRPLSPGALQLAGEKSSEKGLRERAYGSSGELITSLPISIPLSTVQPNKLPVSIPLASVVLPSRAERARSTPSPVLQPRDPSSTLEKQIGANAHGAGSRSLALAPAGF
The assay can be described thus: SPR; DOT1L construct immobilised on CM5 chip.

In assay [8] the target is DOT1L (925-1095) (human) (UniProt Q8TEK3). As to the kind of experiment: SPR; DOT1L construct immobilised on CM5 chip.
Another assay addresses T5, DOT1L (826-958) (human) (UniProt Q8TEK3).
T5 sequence: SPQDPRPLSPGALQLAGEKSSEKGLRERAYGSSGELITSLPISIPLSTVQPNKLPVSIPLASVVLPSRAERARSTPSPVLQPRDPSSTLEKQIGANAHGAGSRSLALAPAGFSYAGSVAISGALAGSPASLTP
As to the kind of experiment: SPR; DOT1L construct immobilised on CM5 chip.

Assay [9] has as its target Mocr-DOT1L (826-1095) (human) (UniProt Q8TEK3). As to the kind of experiment: SPR; DOT1L construct immobilised on CM5 chip.
In the next assay the target is DOT1L (854-1095) (human) (UniProt Q8TEK3). The assay can be described thus: SPR; DOT1L construct immobilised on CM5 chip.
The target of another assay is T6, DOT1L (854-925) (human) (UniProt Q8TEK3).
T6 sequence: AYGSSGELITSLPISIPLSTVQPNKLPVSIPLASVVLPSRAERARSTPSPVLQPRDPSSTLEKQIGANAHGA
As to the kind of experiment: SPR; DOT1L construct immobilised on CM5 chip.

In assay [10] the target is Flag-tagged full length human DOT1L protein, DOT1L (1-1537) (human) (UniProt Q8TEK3). The assay can be described thus: SPR; Flag-DOT1L captured on anti-Flag CM5 chip, AF9 as analyte.
The target is the same in assay [11]. As to the kind of experiment: SPR; full length Flag-DOT1L captured on chip.
Assay [12] addresses DOT1L (925-1095) (human) (UniProt Q8TEK3). The assay can be described thus: SPR; DOT1L (925-1095) immobilised, compared with the longer constructs.
The target in assay [13] is T7, GB1-AF9 (497-568) (human) (UniProt P42568).
T7 sequence: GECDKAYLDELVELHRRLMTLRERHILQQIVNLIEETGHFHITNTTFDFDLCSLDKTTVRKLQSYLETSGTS
As to the kind of experiment: competitive FP; displacement of N-Flu-DOT1L from GB1-AF9.

Assay [14] has as its target T1, MBP-ENL (489-559) (Homo sapiens (Human)). As to the kind of experiment: ITC; peptide (400 µM) into MBP-ENL (489-559) (80 µM).
Assay [15] has as its target T7, GB1-AF9 (497-568) (human). The assay can be described thus: competitive FP; displacement of Flu-DOT1L from GB1-AF9.
The target in assay [16] is T7, GB1-AF9 (497-568) (human). As to the kind of experiment: FP saturation; 10 nM Flu-DOT1L titrated with GB1-AF9.
The target in assay [17] is T1, MBP-ENL (489-559) (Homo sapiens (Human)). The assay can be described thus: FP saturation; 10 nM Flu-DOT1L titrated with MBP-ENL.
Assay [18] deals with T7, GB1-AF9 (497-568) (human). As to the kind of experiment: FP saturation; 5 nM labeled peptide titrated with GB1-AF9.
The target of assay [19] is Flag-tagged full length human DOT1L protein, DOT1L (1-1537) (human) (UniProt Q8TEK3). The assay can be described thus: SPR; Flag-DOT1L captured on anti-Flag CM5 chip, ENL as analyte.

Where no end group is shown, it is not given here. fluorescein = fluorescein label, coupled through a lysine and two β-alanine spacer

B1: DOT1L 7 mer peptide, Ac-LPISIPL-NH2 (865-871) (peptide)
peptide: Ac-LPISIPL-NH2
Take B1: the equilibrium dissociation constant (Kd) in assay [1] is 3.4 µM. The entries for the “fold reduction in binding against the 10-mer peptide” value in assay [2] and in assay [3] were 5 fold and 8 fold, respectively. Also, the half-inhibitory concentration (IC50) stood at 7.3 µM in assay [4] and 3900 nM in assay [6]. Moreover, the fold lower affinity against the 16-mer and 10-mer DOT1L peptides in [5] stood at 3 fold.

B2: ENL H1 (489-544) (protein)
chain: GTYDKAYTDELVELHRRLMALRERNVLQQIVNLIEETGHFNVTNTTFDFDLFSLDE
With B2, in [7], the dissociation constant (Kd) is 2.8 µM and the fold decrease in binding affinity against the intact ENL C-terminal domain was found to be 10 fold.

B3: AF4 14 mer peptide, Ac-LMVKITLDLLSRIP-NH2 (peptide)
peptide: Ac-LMVKITLDLLSRIP-NH2
As for B3, the IC50 was found to be 0.43 µM in [4] and 200 nM in assay [6].

B4: AF9 (497-568), recombinant C-terminal domain of human AF9 (protein)
chain: GECDKAYLDELVELHRRLMTLRERHILQQIVNLIEETGHFHITNTTFDFDLCSLDKTTVRKLQSYLETSGTS
On to B4, for which the Kd with DOT1L (826-937) (human) was determined as 78 nM; with DOT1L (925-1095) (human) [8], 1.82 µM; with DOT1L (826-958) (human) it was 92 nM; in assay [9], 111 nM; with DOT1L (854-1095) (human) it was 135 nM; with DOT1L (854-925) (human) it was 42 nM. The same molecule registered an equilibrium dissociation constant (Kd) in [10] of 33 nM. This molecule also returned a fold higher affinity (AF9 against ENL) in assay [11] of 6 fold. This molecule also yielded a fold decrease in binding affinity with DOT1L (925-1095) (human) [12] of 50 fold.

B5: DOT1L 10mer peptide, Ac-…-NH2 (a.a. 865-874) (peptide)
peptide: Ac-LPISIPLSTV-NH2
In turn, B5 gave a Ki in [13] of 68 nM. For the same molecule, the Kd in [14] was determined as 1100 nM.

B6: AF4 14 mer peptide, Ac-…-NH2 (peptide)
peptide: Ac-LMVKITLDLLSRIP-NH2
Consider B6, for which the half-inhibitory concentration (IC50) in [15] was found to be 280 nM.

B7: P866A, alanine mutated DOT1L 10mer peptide (peptide)
peptide: Ac-LAISIPLSTV-NH2
In the case of B7, the IC50 in assay [4] came out at 6.5 µM; in assay [6], 3300 nM.

B8: I867A, alanine mutated DOT1L 10mer peptide (peptide)
peptide: Ac-LPASIPLSTV-NH2
As to B8, the IC50 in assay [4] is more than 200 µM; in assay [6], 57200 nM.

B9: S872A, alanine mutated DOT1L 10mer peptide (peptide)
peptide: Ac-LPISIPLATV-NH2
Take B9: the IC50 in [4] amounted to 2.8 µM; in assay [6] it was 550 nM.

B10: N-Flu-DOT1L, fluorescein-labeled DOT1L 10-mer peptide (N-terminal label) (peptide)
peptide: LPISIPLSTV-NH2
modifications: not fully specified (N-terminus)
With B10, the equilibrium dissociation constant (Kd) is 65 nM in assay [16], 495 nM in assay [17] and 95 nM in [18].

B11: S868A, alanine mutated DOT1L 10mer peptide (peptide)
peptide: Ac-LPIAIPLSTV-NH2
For the molecule B11, the 50% inhibitory concentration (IC50) amounted to 29.1 µM in assay [4] and 5300 nM in assay [6].

B12: P870A, alanine mutated DOT1L 10mer peptide (peptide)
peptide: Ac-LPISIALSTV-NH2
Regarding B12, the IC50 in assay [4] is 11.6 µM; in assay [6] it was 2800 nM.

B13: DOT1L 16 mer peptide, Ac-…-NH2 (a.a. 865-880) (peptide)
peptide: Ac-LPISIPLSTVQPNKLP-NH2
Regarding B13, the inhibition constant (Ki) in assay [13] was 80 nM. Besides, in [14], the dissociation constant (Kd) was found to be 900 nM.

B14: V874A, alanine mutated DOT1L 10mer peptide (peptide)
peptide: Ac-LPISIPLSTA-NH2
In the case of B14, the values for the concentration for half-maximal inhibition (IC50) in assay [4] and in assay [6] were 4.2 µM and 700 nM, respectively.

B15: ENL (489-559), recombinant C-terminal domain of ENL (protein)
chain: GTYDKAYTDELVELHRRLMALRERNVLQQIVNLIEETGHFNVTNTTFDFDLFSLDETTVRKLQSCLEAVAT
Turning to B15, the Kd in the assay with DOT1L (826-937) (human) was found to be 81 nM; with DOT1L (925-1095) (human) [8], 6.22 µM; in the assay with DOT1L (826-958) (human) it was 122 nM; in assay [9], 238 nM; with DOT1L (854-1095) (human), 148 nM; with DOT1L (854-925) (human), 90 nM. In addition, in [19], the equilibrium dissociation constant (Kd) was found to be 206 nM. In the assay with DOT1L (925-1095) (human) [12], this molecule came in with a fold decrease in binding affinity of 30 fold.

B16: DOT1L 16 mer peptide, Ac-LPISIPLSTVQPNKLP-NH2 (a.a. 865-880) (peptide)
peptide: Ac-LPISIPLSTVQPNKLP-NH2
In the case of B16, the values for the IC50 in [4] and in assay [6] were 1.56 µM and 320 nM, respectively.

B17: ENL H2 (523-559) (peptide)
chain: EETGHFNVTNTTFDFDLFSLDETTVRKLQSCLEAVAT
In the case of B17, in assay [7], the dissociation constant (Kd) is 14.6 µM and the fold decrease in binding affinity against the intact ENL C-terminal domain was 30 fold.

B18: I869A, alanine mutated DOT1L 10mer peptide (peptide)
peptide: Ac-LPISAPLSTV-NH2
B18: the results for the IC50 in assay [4] and in [6] were more than 200 µM and more than 200000 nM, respectively.

B19: L865A, alanine mutated DOT1L 10mer peptide (peptide)
peptide: Ac-APISIPLSTV-NH2
As to B19, the results for the IC50 in assay [4] and in [6] were 27.5 µM and 98500 nM, respectively.

B20: T873A, alanine mutated DOT1L 10mer peptide (peptide)
peptide: Ac-LPISIPLSAV-NH2
Take B20: the half-inhibitory concentration (IC50) in assay [4] was 0.36 µM; in assay [6], 58 nM. Further, the Ki in assay [13] stood at 203 nM.

B21: DOT1L 10mer peptide, Ac-LPISIPLSTV-NH2 (a.a. 865-874) (peptide)
peptide: Ac-LPISIPLSTV-NH2
As to B21, the IC50 in assay [4] is 1.34 µM; in assay [6], 490 nM.

B22: L871A, alanine mutated DOT1L 10mer peptide (peptide)
peptide: Ac-LPISIPASTV-NH2
Turning to B22, the concentration for half-maximal inhibition (IC50) came out at 147 µM in [4] and 30700 nM in assay [6].

B23: C-Flu-DOT1L, fluorescently labeled DOT1L-10 mer peptide (C-terminal label) (peptide)
peptide: Ac-LPISIPLSTV-fluorescein
modifications: also: C-terminal fluorescein label, attachment not given here
Molecule B23 came in with a Kd in [18] of 127 nM. That is a sub-micromolar value.

B24: AF4 recombinant protein (749-775 residues) (peptide)
chain: LSPLRDTPPPQSLMVKITLDLLSRIPQ
As for B24, the IC50 in assay [15] was found to be 560 nM.

For orientation: Kd means the free concentration of one partner at which half of the binding sites on the other are occupied at equilibrium, for simple one-to-one binding. A low value points to a tighter complex. In general, IC50 refers to the concentration at which inhibition is half-maximal. Usually Ki stands for the dissociation constant of the complex between target and ligand, obtained from inhibition or displacement. A higher Ki goes with a looser hold on the target.
